Earlier results, collected in patent US12370207B2, “Low-intensity treatment of hematological disorders” (Celator Pharmaceuticals, Inc., priority 2018, dated 2025).

B1: Pegfilgrastim: exogenous (recombinant) GCSF agent (protein, UniProt P09919 31-207, looked up)
Granulocyte …: TPLGPASSLPQSFLLKCLEQVRKIQGDGAALQEKLVSECATYKLCHPEELVLLGHSLGIPWAPLSSCPSQALQLAGCLSQLHSGLFLYQGLLQALEGISPELGPTLDTLQLDVADFATTIWQQMEELGMAPALQPTQGAMPAFASAFQRRAGGVLVASHLQSFLEVSYRVLRHLAQP
modifications: PEGylated, N-terminal Met (pegfilgrastim)
notes: exogenous (recombinant) GCSF agent
B2: Filgrastim: exogenous (recombinant) GCSF agent (protein, UniProt P09919 31-207, looked up)
Granulocyte …: B1 Granulocyte …
modifications: N-terminal Met (filgrastim)
notes: as for B1

Tests used:
[1] = tested on: hematological malignancies; details: single agent, ISICT patients
[2] = population mean

| Molecule | median overall survival [1] | response rates [1] | Fi, bioavailability of first-order absorption process [2] | CL, clearance ([2]; coefficient of equation (WTKG/70)^0.641) |
| --- | --- | --- | --- | --- |
| Nc1ccn([C@@H]2O[C@H](CO)[C@@H](O)[C@@H]2O)c(=O)n1 [LDAC] | 7-10 months | less than 20% | – | – |
| B1 | – | – | 0.646 | 0.362 · (WTKG/70)^0.641 L/h |
| B2 | – | – | 0.105 | – |
